# According to patent CN114106164A (HANGZHOU PINK BIOTECHNOLOGY LTD COMPANY, dated 2022):
# B1: A2-4 (antibody, V domains shown)
# VH: EVKLMESGGGLVQPGGSLKLSCAASGFDFSRYWMSWVRQAPGEGLEWIGEINPDSSTISYTPSLKDKFIISRDNAKNTLYLQMSKVRSEDTALYYCARRGLLLLTMDYWGQGTSVTVSS
# VL: DIVMTQSPKSLSMSVGERVTLSCKASENVDTYVSWYQQKPEQSPKLLIYGASNRYTGVPDRFTGSGSATYFTLTISSVQAEDLADYHCGQTYSYPFTFGSGTKLEIK
# B2: B1-2 (antibody, V domains shown)
# VH: QVQLVESGGGFVQPGGSLRLSCAVSGGTFSTYGMGWFRQAPGKEREIVAAIRRSGSTYYADSVRGRFTISRDNAKNSVLLQMNSLKPEDTAVYYCAARRAGREYEYWGQGTQVTVSS
# B3: B1-1 (antibody, V domains shown)
# VH: QVQLVESGGGLVQPGGSLRLSCAASGFTFDDYAMSWVRQAPGKGLEWVSNIYSYISTTHYADSVKGRFTISTDNAKNTLYLQMNSLKPEDTAVYYCAARRLDTTDYKYWGQGTQVTVSS
# B4: A2-2 (antibody, V domains shown)
# VH: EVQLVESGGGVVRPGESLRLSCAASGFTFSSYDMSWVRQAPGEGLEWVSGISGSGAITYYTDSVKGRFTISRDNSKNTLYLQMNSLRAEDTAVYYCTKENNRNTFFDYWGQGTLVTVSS
# VL: EIVLTQSPGTLSLSPGERATLSCRASQTVRSDLAWYQQKPGQAPRLLIYGASTRATDISDRFSGSGSGTEFTLTISSLQSEDFAVYYCQQYYEWPPHSDSFGGGTKVEIK
# B5: Mouse anti-SARS-COV-2 Mab1(RBD-Ab) (antibody, V domains shown)
# VH: VKLQESGAELVRPGTSVKVSCKASGYAFTNYLIEWVKQRPGQGLEWIGVINPGSGGTNYNEKFKGKATLTADKSSSTAYMQLSSLTSDDSAVYFCARGRADYWGQGTSVTVSS
# VL: DILMTQSPSSMSVSLGDTVSITCHASQGFSSNIGWLQQKPGKSFKGLIYHGTNLEDGVPSRFSGSGSGADYSLTISSLESEDFADYYCVQYAQFPYTFGGGTKLEIK
# notes: also called B1-5; B1-5号抗体
# Target: T1, SARS-CoV-2-RBD蛋白 (重组6X His标记的RBD蛋白) (SARS-CoV-2, UniProt P0DTC2 319-541)
# Experiment: indirect ELISA, purified antibody, antigen coated 3ug/ml
Binder,ELISA OD at 1.28ng/ml,ELISA OD at 6.4ng/ml,ELISA OD at 32ng/ml,ELISA OD at 160ng/ml,ELISA OD at 800ng/ml,ELISA OD at 4ug/ml,ELISA OD at 20ug/ml
B1,0.106,0.126,0.149,0.279,0.584,1.33,1.95
B2,0.073,0.085,0.127,0.26,0.647,1.49,2.04
B3,0.072,0.088,0.154,0.38,0.929,1.19,1.35
B4,0.115,0.229,0.447,0.689,1.27,1.62,1.72

# Target: T2, MERS-CoV Spike/RBD Protein fragment(RBD,aa 367-606,His Tag)，货号40071-V08B1 (MERS-CoV, UniProt K9N5Q8 367-606)
# T2 construct: range 367-606; Bought reagent
# Experiment: ELISA, cross-reactivity test
row,Binder,binding result
1,B5,no binding

# Target: T3, SARS-CoV Spike/RBD Protein(RBD,His Tag)，货号40150-V08B2 (SARS-CoV, UniProt P59594 306-527)
# T3 construct: domain: RBD
# Experiment: ELISA, cross-reactivity test
row,Binder,binding result
1,B5,no binding

# Target: T1, SARS-CoV-2-RBD蛋白 (重组6X His标记的RBD蛋白)
# Experiment: indirect ELISA, ascites, antigen coated 3ug/ml
Binder,ELISA OD at 稀释倍数 100,ELISA OD at 稀释倍数 500,ELISA OD at 稀释倍数 2500,ELISA OD at 稀释倍数 12500,ELISA OD at 稀释倍数 62500,ELISA OD at 稀释倍数 312500,ELISA OD at 稀释倍数 1562500
B1,1.39,1.36,1.43,0.84,0.373,0.121,0.072
B2,1.85,1.61,1,0.297,0.118,0.091,0.081
B3,1.43,1.31,1.4,1.26,0.545,0.19,0.084
B4,1.53,1.49,1.46,1.06,0.508,0.155,0.077
